The record followed here is US20260250421A1 (BIOCYTOGEN PHARMACEUTICALS BEIJING, published 2026).

Experiment [1] deals with T1, human PTK7 on human cancer cell lines (human, UniProt Q13308 31-1070).
T1 construct: Endogenous PTK7 of human tumour cell lines; also called PTK7 on A-431, NCI-H520, NCI-N87, SK-OV-3, BT-20, HCC1954, NCI-H226, NCI-H358, HCT116, PC-3, NCI-H292, NCI-H1975 cells
T1 sequence: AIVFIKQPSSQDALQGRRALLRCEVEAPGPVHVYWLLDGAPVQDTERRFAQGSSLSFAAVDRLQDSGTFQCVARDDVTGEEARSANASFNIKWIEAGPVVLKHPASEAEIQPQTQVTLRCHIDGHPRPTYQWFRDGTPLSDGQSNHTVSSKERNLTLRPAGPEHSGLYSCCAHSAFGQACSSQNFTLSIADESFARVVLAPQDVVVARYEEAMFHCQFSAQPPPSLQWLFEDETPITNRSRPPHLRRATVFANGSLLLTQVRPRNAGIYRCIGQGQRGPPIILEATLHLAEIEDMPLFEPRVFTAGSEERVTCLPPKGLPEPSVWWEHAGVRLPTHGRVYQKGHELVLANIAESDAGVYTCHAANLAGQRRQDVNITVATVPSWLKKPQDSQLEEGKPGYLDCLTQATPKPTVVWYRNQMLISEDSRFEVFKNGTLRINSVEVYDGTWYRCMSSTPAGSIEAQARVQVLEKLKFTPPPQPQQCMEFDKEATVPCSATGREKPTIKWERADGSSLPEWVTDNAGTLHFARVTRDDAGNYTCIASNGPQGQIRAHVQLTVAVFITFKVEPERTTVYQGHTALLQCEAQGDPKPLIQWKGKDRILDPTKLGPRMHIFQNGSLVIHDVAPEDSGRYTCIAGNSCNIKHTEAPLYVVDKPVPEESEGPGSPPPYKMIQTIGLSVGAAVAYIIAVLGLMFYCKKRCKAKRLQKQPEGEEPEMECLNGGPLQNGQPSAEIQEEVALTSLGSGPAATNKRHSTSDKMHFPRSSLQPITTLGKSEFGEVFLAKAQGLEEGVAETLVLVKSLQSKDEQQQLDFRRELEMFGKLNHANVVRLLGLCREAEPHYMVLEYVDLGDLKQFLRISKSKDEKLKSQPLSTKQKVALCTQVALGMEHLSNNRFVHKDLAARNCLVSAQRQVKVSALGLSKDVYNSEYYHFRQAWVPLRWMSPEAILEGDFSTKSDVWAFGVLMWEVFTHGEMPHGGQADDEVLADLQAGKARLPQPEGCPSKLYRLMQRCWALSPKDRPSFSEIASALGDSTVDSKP
The experiment is described as follows: flow cytometry, NCI-H520 cells, Ab 5 ug/mL. As to the method:
The binding activity of anti-PTK7 antibodies to cancer cell lines was verified by flow cytometry. […] Purified anti-PTK7 antibody with a concentration of 5 μg/mL was added to each well and was incubated at 4° C. for 30 minutes. […] The cells were collected, and the mean fluorescence intensity (MFI) was determined. Human IgG1 was used as ISO control.

The target in experiment [2] is T2, His-tagged human PTK7 protein (human, UniProt Q13308 31-704).
T2 construct: Bought protein; also called hPTK7-His; not shown: His tag
T2 sequence: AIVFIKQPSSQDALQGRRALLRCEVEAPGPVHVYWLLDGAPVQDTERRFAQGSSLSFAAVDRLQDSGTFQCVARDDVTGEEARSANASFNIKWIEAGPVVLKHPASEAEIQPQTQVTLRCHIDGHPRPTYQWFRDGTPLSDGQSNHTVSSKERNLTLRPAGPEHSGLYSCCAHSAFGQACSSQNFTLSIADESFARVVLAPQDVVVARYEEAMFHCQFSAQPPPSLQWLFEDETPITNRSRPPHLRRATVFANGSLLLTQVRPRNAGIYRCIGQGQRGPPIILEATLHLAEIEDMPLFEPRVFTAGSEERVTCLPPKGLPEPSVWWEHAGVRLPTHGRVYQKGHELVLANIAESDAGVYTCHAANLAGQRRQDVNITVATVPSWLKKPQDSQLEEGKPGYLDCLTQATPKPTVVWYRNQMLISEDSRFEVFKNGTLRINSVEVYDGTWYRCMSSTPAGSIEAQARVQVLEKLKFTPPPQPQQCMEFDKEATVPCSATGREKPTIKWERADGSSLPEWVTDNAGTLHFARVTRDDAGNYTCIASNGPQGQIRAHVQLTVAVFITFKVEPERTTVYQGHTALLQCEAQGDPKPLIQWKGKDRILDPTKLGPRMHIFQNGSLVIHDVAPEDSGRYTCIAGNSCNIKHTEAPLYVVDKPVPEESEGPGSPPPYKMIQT
Kind of experiment: BLI Octet binning on hPTK7-His; competitor 2D11. As to the method:
Relative positions of target protein epitope between a pair of purified anti-PTK7 antibodies were analyzed by Biolayer Interferometry (BLI) using ForteBio Octet system at 30° C. A total of […] purified antibodies were used: 1A7, 1A11, 1F2, 2A5, 2D11, 2F5, 3C4 and 3E6.
1×HBS-EP+ buffer (10 mM 4-(2-hydroxyethyl)-1-piperazineethanesulfonic acid (HEPES), 150 mM NaCl, 3 mM ethylenediaminetetraacetic acid (EDTA) and 0.05% P20, pH7.4) diluted from HBS-EP+ buffer (10×) was used as the running buffer throughout the experiment. His-tagged human PTK7 protein was captured at a flow rate of 10 μL/min, and 200 nM of antibody (Analyte 1) was injected at a flow rate of 30 μL/min to bind the ligand. Another antibody (Analyte 2) was injected under the same conditions to determine whether the binding of different antibodies interfered with each other. The binding time was 300 s for each antibody.
The binding value of each antibody was obtained using Data Analysis HT 12.0. To quantify the interference of one antibody binding to another, a binding ratio was calculated to compare each pair of antibodies. The binding ratio is defined as the binding value of the second antibody (Analyte 2), divided by the binding value of the first antibody (Analyte 1). […] In general, antibody pairs that interfere with each other have the same or overlapping epitopes.
For orientation: Biolayer interferometry detects binding as a change in optical thickness at a sensor tip.

B1: 1F2 (antibody, V domains shown)
VH: QVQLVQSGGGLVQPGGSLRLSCAASGFTFSRYEMNWVRQAPGKGLEWVSYINSIGSAINYADSVKGRFTISRDNAKNSLYLQMRSLRAEDTAVYYCVREDNWNPGYWGQGTLVTVSS
VL: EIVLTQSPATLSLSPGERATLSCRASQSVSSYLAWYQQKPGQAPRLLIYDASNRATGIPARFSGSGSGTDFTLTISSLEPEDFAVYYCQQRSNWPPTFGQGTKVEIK
notes: also called anti-PTK7 antibody 1F2
As for B1, the MFI in experiment [1] came to 216000. The binding ratio in experiment [2] amounted to 0.62.

B2: 3C4 (antibody, V domains shown)
VH: QVQLEQSRAEVKKPGESLRISCKGSGYSFTSYWISWVRQMPGKGLEWMGRIDPSDSYTNYNPSFQGHVTISADKSISTAYLQWSSLKASDTAMYYCARRDGSYFDFDYWGQGTLVTVSS
VL: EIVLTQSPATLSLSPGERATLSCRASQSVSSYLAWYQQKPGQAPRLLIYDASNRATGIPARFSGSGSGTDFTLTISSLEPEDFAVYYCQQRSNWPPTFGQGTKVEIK
notes: also called anti-PTK7 antibody 3C4
As for B2, in experiment [1], the MFI came to 282000. In addition, the binding ratio in experiment [2] amounted to 0.91.

B3: 3E6 (antibody, V domains shown)
VH: QVQLVESGAEVKKPGESLRISCRGSGYSFTSYWISWVRQMPGKGLEWMGRIDPSDSYTKYSPSFQGHVTISADKSISTAYLQWSSLKASDTAMYYCARRDGDYFDFDYWGQGTLVTVSS
VL: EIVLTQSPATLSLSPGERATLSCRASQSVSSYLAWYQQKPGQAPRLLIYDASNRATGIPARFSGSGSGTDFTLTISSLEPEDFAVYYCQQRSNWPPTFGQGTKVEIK
notes: also called anti-PTK7 antibody 3E6
Regarding B3, the MFI in experiment [1] amounted to 310000. In experiment [2], the binding ratio was 0.76.

B4: 1A11 (antibody, V domains shown)
VH: QVQLVQSGPGLVKPSETLSLTCTVSGGSINSYYWNWIRQPPGKGLEWIGYIYYSGSTNYNPSLKSRVTISVDTSKNQFSLKLSSVTAADTAVYYCARDPHDYIRGHFDLWGRGTLFTVSS
VL: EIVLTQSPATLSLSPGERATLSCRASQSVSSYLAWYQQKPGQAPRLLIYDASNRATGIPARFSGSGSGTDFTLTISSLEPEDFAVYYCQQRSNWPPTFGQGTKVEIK
notes: also called anti-PTK7 antibody 1A11
In experiment [1], B4 gave an MFI of 296000. Moreover, the binding ratio in experiment [2] was 0.71.

B5: 1A7 (antibody, human IgG1, V domains shown)
VH: QVQLVESGGGVVQPGRSLRLSCAASGFTFSNYGMHWVRQAPGKGLEWVAVIYYDGSNKFYADSVKGRFTISRDNSKNTLYLQMSSLRAEDTAVYYCARDVAPPGSRAEYFHHWGQGTLVTVSS
VL: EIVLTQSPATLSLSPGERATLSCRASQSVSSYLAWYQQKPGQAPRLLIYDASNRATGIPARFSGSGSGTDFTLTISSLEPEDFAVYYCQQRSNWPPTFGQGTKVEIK
notes: also called anti-PTK7 antibody 1A7
Consider B5, for which the MFI in experiment [1] worked out at 190000. Further, the binding ratio in experiment [2] amounted to 0.1.

B6: 2A5 (antibody, V domains shown)
VH: QVQLVQSGGGVVQPGRSLRLSCAASGFTFSNYGMHWVRQAPGKGLEWVAVIWYDGRNKYYADSVKGRFTISRDNSKNTLYLQMNSLRAEDTAVYYCARDVAPAGSRAEYFQNWGQGTLVTVSS
VL: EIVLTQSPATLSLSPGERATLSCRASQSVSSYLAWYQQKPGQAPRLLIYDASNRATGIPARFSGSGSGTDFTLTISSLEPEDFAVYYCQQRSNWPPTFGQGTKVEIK
notes: also called anti-PTK7 antibody 2A5
On to B6, for which the MFI in experiment [1] was 283000. The binding ratio in experiment [2] was -0.07.

B7: 2D11 (antibody, V domains shown)
VH: QVQLVESGGGVVQPGRSLRLSCAASGFTFSSYGMHWVRQAPGKGLEWVAVIFYDGSNKYYADSVKGRFTISRDNSKNTLYLQMNSLRAEDTSVYYCARDVAAPGSRAEYFQNWGQGTLVTVSS
VL: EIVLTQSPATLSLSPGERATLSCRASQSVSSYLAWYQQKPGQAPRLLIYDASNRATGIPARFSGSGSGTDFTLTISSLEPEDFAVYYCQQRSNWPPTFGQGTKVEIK
notes: also called anti-PTK7 antibody 2D11
B7 gave an MFI in experiment [1] of 312000. In addition, the binding ratio in experiment [2] worked out at 0.15.

B8: 2F5 (antibody, V domains shown)
VH: QVQLVESGGGVVQPGRSLRLSCVASGFTFSNYGMHWVRQAPGKGLEWVAIIYYDGSNKYYADSVKGRFTISRDNSKNTLYLQMNSLRAEDTAVYYCARDVAAAGSRAEYLHHWGQGTLVTVSS
VL: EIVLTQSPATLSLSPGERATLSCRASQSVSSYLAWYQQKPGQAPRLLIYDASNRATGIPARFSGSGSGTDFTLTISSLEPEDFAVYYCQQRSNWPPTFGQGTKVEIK
notes: also called anti-PTK7 antibody 2F5
In the case of B8, in experiment [1], the MFI came out at 199000. In addition, in experiment [2], the binding ratio was 0.07.
